Target: T1, CD20 (human, UniProt P11836 1-297)
T1 construct: whole, on cells; also called CD20 on Ramos cells
T1 sequence (looked up): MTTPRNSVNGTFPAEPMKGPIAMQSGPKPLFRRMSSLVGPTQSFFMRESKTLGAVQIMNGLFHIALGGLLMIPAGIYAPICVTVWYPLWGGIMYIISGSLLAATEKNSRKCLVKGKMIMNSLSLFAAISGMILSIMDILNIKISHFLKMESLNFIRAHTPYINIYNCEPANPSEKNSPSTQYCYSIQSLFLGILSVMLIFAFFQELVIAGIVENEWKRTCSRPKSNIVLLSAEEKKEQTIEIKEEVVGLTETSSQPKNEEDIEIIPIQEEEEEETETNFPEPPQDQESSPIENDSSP
Assay: saturation binding of radiolabeled mAb to Ramos cells (10^7 cells), nonlinear regression; avidity

B1: B9E9 mAb (murine anti-CD20 antibody B9E9) (antibody, V domains shown)
VH: QVQLVQSGAELVKPGASVKMSCKASGYTFTSYNMHWVKQTPGQGLEWIGAIYPGNGDTSYNQKFKGKATLTADKSSSTAYMQLSSLTSEDSAVYYCARAQLRPNYWYFDVWGAGTTVTVSS
VL: DIVLSQSPAILSASPGEKVTMTCRASSSVSYMHWYQQKPGSSPKPWIYATSNLASGVPARFSGSGSGTSYSLTISRVEAEDAATYYCQQWISNPPTFGAGTKLELK
Ka: 1.02e+08 M⁻¹
Kd: 9.75 nM
